The text below walks through data of patent publication US20130330358A1, “CRYSTAL STRUCTURE AND PEPTIDE INHIBITORS OF HAUSP DEUBIQUITINASE” (priority 2011, published 2013).

The target of test [1] is T1, HAUSP TRAF domain HAUSP^62-205 (Homo sapiens, UniProt Q93009).
T1 construct: HAUSP^62-205, and HAUSP^62-560 were fused to a hexahistidine-tag2 and expressed in E. coli BL21 (DE3) RIPL cells; hexahistidine (cleaved yes); made in house; host or cells: E. coli BL21 (DE3) RIPL
Kind of test: biochemical. It counts as binding. Conditions: for n: Table 1a, ITC fit parameter n, 150 mM NaCl, 10 mM HEPES (pH 7.0). As to the method: FIG. 5. Typical isothermal titration calorimetric measurements of the interactions between the HAUSP TRAF domain and the vIRF4 protein derivatives or other peptides. Purified proteins and synthesized peptides were reconstituted in 150 mM NaCl and 10 mM HEPES (pH 7.0). The calorimetric assays were performed using a VPITC system. All experiments were carried out with a stirring speed of 300 rpm at 20° C., and the thermal power was recorded every 10 s. Data were analyzed using the ORIGIN software package (version 7.0). […] Each titration against the HAUSP TRAF domain is indicated in each panel.
Purified proteins and synthesized peptides (Peptron Inc., Deajeon, Korea) were reconstituted in 150 mM NaCl and 10 mM HEPES (pH 7.0). The calorimetric assays were performed using a VP-ITC system (MicroCal Inc., Northampton, Mass.). Samples were degassed by vacuum aspiration for 15 min prior to loading. All experiments were carried out with a stirring speed of 300 rpm at 20° C., and the thermal power was recorded every 10 s. Data were analyzed using the ORIGIN software package (version 7.0) supplied with the instrument. […]

For test [2], the target named is T1, HAUSP TRAF domain HAUSP^62-205. Kind of test: Size exclusion chromatography, complex formation in 5-fold excess of MDM2^137-152. Conditions: in the presence of a 5-fold molar excess of MDM2 peptide. It counts as binding. For orientation: Size exclusion chromatography separates by hydrodynamic size, large species first.

Read-outs that look alike come from different tables or passages of the source.

T1 sequence (Q93009 62-205): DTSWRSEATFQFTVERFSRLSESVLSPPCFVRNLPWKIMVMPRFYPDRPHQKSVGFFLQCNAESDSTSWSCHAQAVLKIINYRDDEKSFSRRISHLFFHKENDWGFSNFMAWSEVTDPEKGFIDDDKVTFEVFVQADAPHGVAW

B1: vIRF4^153-256: vIRF4 aa 153-256 region, hexahistidine-tagged, expressed in E. coli (protein)
chain: SDTREQSYEEAGAAAPAPPKAPSGLRGRPRKSNRYYNVGDITTEQKAACSVWIPVNEGASTSGMGSSGTRQVTQASSFTWRVPGDPPAPSTLTGPSDPHSSGAG
modifications: left off: small tags and cut ends
notes: vIRF4 aa 153-256 region, hexahistidine-tagged, expressed in E. coli
One may read the Kd as a measure of binding affinity in units of concentration. B1: the Kd in test [1] (HAUSP^62-205 and vIRF4^153-256, ITC, read-out: dissociation constant (Kd)) stood at 76 nM; in test [1] (ITC, 20° C., read-out: Kd), 76 nM. The molecule further gave a n in test [1] (20° C.) of 1.13 ± 0.18.

B2: vIRF4^153-216: vIRF4 aa 153-216 fragment, hexahistidine-tagged, expressed in E. coli (protein)
chain: SDTREQSYEEAGAAAPAPPKAPSGLRGRPRKSNRYYNVGDITTEQKAACSVWIPVNEGASTSGM
modifications: left off: small tags and cut ends
notes: vIRF4 aa 153-216 fragment, hexahistidine-tagged, expressed in E. coli
Take B2: the “complex formation with the HAUSP TRAF domain” value in test [2] is on record as “formed a stable complex”. For the same molecule, the Kd in test [1] (ITC, 20° C., read-out: Kd) turned out to be 540 nM. Besides, the n in test [1] (20° C.) came to 0.82 ± 0.09.
